Experimental data as given in paper PMC4491846.

Target: Tulane virus (TV) virions, CsCl gradient-purified (Tulane virus)

Substance: Maackia amurensis leukoagglutinin (MAL), biotinylated (from UniProt P0DKL3 30-278) (natural protein)
- TV infectivity in LLC-MK2 cells by plaque assay after treatment with MAL (dose series up to 100 μg/mL; maximum enhancement at 50 μg/mL), percent of the untreated control: 262%
